Source: the RNAGym collection of RNA variant scans (doi:10.1093/nar/gkz1192)

B1: CPEB3 Ribozyme (parent)
chain: UAACAGGGGGCCACAGCAGAAGCGUUCACGUCGCAGCCCCUGUCAGAUUCUGGUGAAUCUGCGAAUUCUGCUGUAUAUCUC

Variants of: B1
Experiment: self-cleavage, relative activity (ratio to wild type); higher = more cleavage; in vitro, sequencing
How it was run: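 For each CPEB3 ribozyme variant, relative activity is its cleaved/total read fraction divided by the unmutated ribozyme's. Barcoded error-prone PCR libraries were transcribed by T7 RNA polymerase (5 hours, 37°C) and held in DNase I for 15 min before an EDTA stop, with cleavage occurring throughout. Template-switching reverse transcription and Illumina sequencing were used to read the RNAs. A 5-read minimum applied, and results are the mean of three batches.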
With UAACAGGGGGCCACAGCAGAAGCGUUCACGUCGCAGCCCCUGUCAGAUUCUGGUGAAUUUGCGAAUUCUGCUGUAUGUCUC the self-cleavage was 0.94.
For UAACAGGGGGCCACAGCAGAAGCGUUCACGUCGCAGCCCCUGUCAGAUUCUGGUGAAUAUGCGAAUUAUGCUGUAUAUCUC, the self-cleavage was 0.19.
Variant UAACAGGGGGCCACAGCAGAAGCGUUCACGUCGCAGCCCCUGUCAGAUUCUGGUGAAUGUGCGAACUCUGCUGUAUAUCUC has a self-cleavage of 0.19.
Variant UAACAGGGGGCCACAGCAGAAGCGUUCACGUCGCAGCCCCUGUCAGAUUCUGGUGAAUGUGCGAAUUCCGCUGUAUAUCUC has a self-cleavage of 0.2.
In the case of UAACAGGGGGCCACAGCAGAAGCGUUCACGUCGCAGCCCCUGUCAGAUUCUGGUGAAUCAGCGAAUUCUGUUGUAUAUCUC, the self-cleavage is reported as 0.48.
UAACAGGGGGCCACAGCAGAAGCGUUCACGUCGCAGCCCCUGUCAGAUUCUGGUGAAUCAGCGAAUUCUGGUGUAUAUCUC gave a self-cleavage of 0.35.
For UAACAGGGGGCCACAGCAGAAGCGUUCACGUCGCAGCCCCUGUCAGAUUCUGGUGAAUCAGCGAAUUCUGAUGUAUAUCUC, the self-cleavage was 0.39.
Work on UAACAGGGGGCCACAGCAGAAGCGUUCACGUCGCAGCCCCUGUCAGAUUCUGGUGAAUAUGCGAAUUCAGCUGUAUAUCUC yielded a self-cleavage of 0.18.
In the case of UAACAGGGGGCCACAGCAGAAGCGUUCACGUCGCAGCCCCUGUCAGAUUCUGGUGAAUAUGCGAAUUCCGCUGUAUAUCUC, the self-cleavage is reported as 0.23.
For UAACAGGGGGCCACAGCAGAAGCGUUCACGUCGCAGCCCCUGUCAGAUUCUGGUGAAUAUGCGAAUCCUGCUGUAUAUCUC, the self-cleavage was 0.16.
UAACAGGGGGCCACAGCAGAAGCGUUCACGUCGCAGCCCCUGUCAGAUUCUGGUGAAUAUGCGAAUACUGCUGUAUAUCUC gave a self-cleavage of 0.26.
In the case of UAACAGGGGGCCACAGCAGAAGCGUUCACGUCGCAGCCCCUGUCAGAUUCUGGUGAAUCAGCGAGUUCUGCUGUAUAUCUC, the self-cleavage is reported as 0.34.
Work on UAACAGGGGGCCACAGCAGAAGCGUUCACGUCGCAGCCCCUGUCAGAUUCUGGUGAAUCAGCGAUUUCUGCUGUAUAUCUC yielded a self-cleavage of 0.21.
Work on UAACAGGGGGCCACAGCAGAAGCGUUCACGUCGCAGCCCCUGUCAGAUUCUGGUGAAUCAGCGAAUUCUGCUGUAUAUCUC yielded a self-cleavage of 0.57.
With UAACAGGGGGCCACAGCAGAAGCGUUCACGUCGCAGCCCCUGUCAGAUUCUGGUGAAUCAGCGAAUUCUGCUGUUUAUCUC the self-cleavage was 0.62.
Variant UAACAGGGGGCCACAGCAGAAGCGUUCACGUCGCAGCCCCUGUCAGAUUCUGGUGAAUCAGCGAAUUCUGCUGUGUAUCUC has a self-cleavage of 0.46.
With UAACAGGGGGCCACAGCAGAAGCGUUCACGUCGCAGCCCCUGUCAGAUUCUGGUGAAUAUGCGAAUUCUGCUGUAUAUCCC the self-cleavage was 0.38.
In the case of UAACAGGGGGCCACAGCAGAAGCGUUCACGUCGCAGCCCCUGUCAGAUUCUGGUGAAUAUGCGAAUUCUGCUGUAUAUCGC, the self-cleavage is reported as 0.33.
Variant UAACAGGGGGCCACAGCAGAAGCGUUCACGUCGCAGCCCCUGUCAGAUUCUGGUGAAUAUGCGAAUUCUGCUGGAUAUCUC has a self-cleavage of 0.74.
Variant UAACAGGGGGCCACAGCAGAAGCGUUCACGUCGCAGCCCCUGUCAGAUUCUGGUGAAUAUGCGAAUUCUGCUGCAUAUCUC has a self-cleavage of 0.5.
UAACAGGGGGCCACAGCAGAAGCGUUCACGUCGCAGCCCCUGUCAGAUUCUGGUGAAUAUGCGAAUUCUGCUGUAAAUCUC showed a self-cleavage of 0.43.
For UAACAGGGGGCCACAGCAGAAGCGUUCACGUCGCAGCCCCUGUCAGAUUCUGGUGAAUAUGCGAAUUCUGCUGUAGAUCUC, the self-cleavage was 0.33.
For UAACAGGGGGCCACAGCAGAAGCGUUCACGUCGCAGCCCCUGUCAGAUUCUGGUGAAUCAGUGAAUUCUGCUGUAUAUCUC, the self-cleavage was 0.26.
UAACAGGGGGCCACAGCAGAAGCGUUCACGUCGCAGCCCCUGUCAGAUUCUGGUGAAUCAGCGAAUUCUGCUGUAUAUAUC showed a self-cleavage of 0.88.
Work on UAACAGGGGGCCACAGCAGAAGCGUUCACGUCGCAGCCCCUGUCAGAUUCUGGUGAAUUUGCGAAUCCUGCUGUAUAUCUC yielded a self-cleavage of 0.21.
For UAACAGGGGGCCACAGCAGAAGCGUUCACGUCGCAGCCCCUGUCAGAUUCUGGUGAAUUUGCGAAUACUGCUGUAUAUCUC, the self-cleavage was 0.28.
Variant UAACAGGGGGCCACAGCAGAAGCGUUCACGUCGCAGCCCCUGUCAGAUUCUGGUGAAUGUGCGAAUUCUGCUGUUUAUCUC has a self-cleavage of 0.28.
UAACAGGGGGCCACAGCAGAAGCGUUCACGUCGCAGCCCCUGUCAGAUUCUGGUGAAUUCGCGAAUUCUGCUGUAUAUCUC gave a self-cleavage of 0.34.
UAACAGGGGGCCACAGCAGAAGCGUUCACGUCGCAGCCCCUGUCAGAUUCUGGUGAAUUAGCGAAUUCUGCUGUAUAUCUC gave a self-cleavage of 0.28.
Variant UAACAGGGGGCCACAGCAGAAGCGUUCACGUCGCAGCCCCUGUCAGAUUCUGGUGAAUUUGCAAAUUCUGCUGUAUAUCUC has a self-cleavage of 0.86.
Work on UAACAGGGGGCCACAGCAGAAGCGUUCACGUCGCAGCCCCUGUCAGAUUCUGGUGAAUAUGCGAAUUCUGCUGUAUACCUC yielded a self-cleavage of 0.38.
Work on UAACAGGGGGCCACAGCAGAAGCGUUCACGUCGCAGCCCCUGUCAGAUUCUGGUGAAUAUGCGAAUUCUGCUGUAUAACUC yielded a self-cleavage of 0.22.
UAACAGGGGGCCACAGCAGAAGCGUUCACGUCGCAGCCCCUGUCAGAUUCUGGUGAAUGUGCGAAUUCUGCUGUAAAUCUC showed a self-cleavage of 0.47.
Variant UAACAGGGGGCCACAGCAGAAGCGUUCACGUCGCAGCCCCUGUCAGAUUCUGGUGAAUUUGCGUAUUCUGCUGUAUAUCUC has a self-cleavage of 0.25.
